Experimental findings from patent publication US7101989 (UNIVERSITY OF NORTH CAROLINA AT CHAPEL HILL, dated 2006) are described below.

This series deals with the molecule itself. As to the kind of experiment: SDS-PAGE of outer membranes solubilised at 37 C or 100 C.

B1: DsrA (Ducreyi Serum Resistance A protein) of H. ducreyi strain 35000 (other)
chain: QQPPKFAGVSSLYSYEYDYGKGKWTWSNEGGFDIKVPGIKMKPKEWISKQATYLELQHYMPYTPVLVTYAPGVSPSPILLYPMSDPDQLGINRQQLKLNLYSYFNDLRHDFKLKVLDARISKNKQNIDTISKYLLELGTYLDDSYRMMEQNTHNINKLSKELQTGLANQSALSMLVQPNGVGKTSVSAAVGGYRDKTALAIGVGSRITDRFTAKAGVAFNTYNGGMSYGASVGYEF
notes: In Western blots DsrA was denatured, from outer membranes or total cellular proteins; In the vitronectin experiment it was on whole surface-iodinated bacteria and was then solubilised in detergent; It forms multimers of unstated number; also called 30 kDa protein; 30 kDa band
B1: the binding result is reported as “binds”.
